# T1: cyno IL-6 (cynomolgus monkey, UniProt P79341 28-212, limits assumed)
# T1 sequence (looked up): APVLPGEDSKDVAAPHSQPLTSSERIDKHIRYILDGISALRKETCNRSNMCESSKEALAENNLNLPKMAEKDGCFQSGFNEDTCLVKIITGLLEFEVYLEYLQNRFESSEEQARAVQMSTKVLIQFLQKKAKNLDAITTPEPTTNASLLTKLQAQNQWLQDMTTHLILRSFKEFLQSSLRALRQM
# B1: F027200989 (bispecific antibody)
# chain: EVQLVESGGGVVQPGGSLRLSCTASGFTFSTADMGWFRQAPGKGREFVARISGIDGTTYYDEPVKGRFTISRDNSKNTVYLQMNSLRPEDTALYYCRSPRYADQWSAYDYWGQGTLVKVSSGGGGSGGGSEVQLVESGGGVVQPGGSLRLSCAASGFSLDYYGVGWFRQAPGKEREGVSCISSSEGDTYYADSVKGRFTISRDNAKNTVYLQMNSLRPEDTALYYCATDLSDYGVCSRWPSPYDYWGQGTLVKVSSGGGGSGGGSEVQLVESGGGVVQPGGSLRLSCAASGFTFRSFGMSWVRQAPGKGPEWVSSISGSGSDTLYADSVKGRFTISRDNSKNTLYLQMNSLRPEDTALYYCTIGGSLSRSSQGTLVTVSSGGGGSGGGSEVQLVESGGGVVQPGGSLRLSCAASGFTLAYYAIGWFRQAPGKEREGVSCISGSVGTTYYADSVKGRFTISRDNAKNTVYLQMNSLRPEDTALYYCVRSSWFDCGVQGRDLGNEYDYRGQGTLVTVSS
# B2: F027200167 (bispecific antibody)
# chain: EVQLVESGGGVVQPGGSLRLSCAASGIIFSINAMGWYRQAPGKQRELVADIFPFGSTEYADSVKGRFTISRDNAKNTVYLQMNSLRPEDTALYYCHSYDPRGDDYWGQGTLVTVSSGGGGSGGGSEVQLVESGGGVVQPGGSLRLSCAASGRTFSSYVMGWFRQAPGKEREFVSTINWAGSRGYYADSVKGRFTISRDNAKNTVYLQMNSLRPEDTALYYCAASAGGFLVPRVGQGYDYWGQGTLVTVSSGGGGSGGGSEVQLVESGGGVVQPGGSLRLSCAASGFTFRSFGMSWVRQAPGKGPEWVSSISGSGSDTLYADSVKGRFTISRDNSKNTLYLQMNSLRPEDTALYYCTIGGSLSRSSQGTLVTVSSGGGGSGGGSEVQLVESGGGVVQPGGSLRLSCTASGFTFSTADMGWFRQAPGKGREFVARISGIDGTTYYDEPVKGRFTISRDNSKNTVYLQMNSLRPEDTALYYCRSPRYADQWSAYDYWGQGTLVKVSS
# B3: F027200154 (bispecific antibody)
# chain: EVQLVESGGGVVQPGGSLRLSCTASGFTFSTADMGWFRQAPGKGREFVARISGIDGTTYYDEPVKGRFTISRDNSKNTVYLQMNSLRPEDTALYYCRSPRYADQWSAYDYWGQGTLVKVSSGGGGSGGGSEVQLVESGGGVVQPGGSLRLSCAASGFTFRSFGMSWVRQAPGKGPEWVSSISGSGSDTLYADSVKGRFTISRDNSKNTLYLQMNSLRPEDTALYYCTIGGSLSRSSQGTLVTVSSGGGGSGGGSEVQLVESGGGVVQPGGSLRLSCAASGIIFSINAMGWYRQAPGKQRELVADIFPFGSTEYADSVKGRFTISRDNAKNTVYLQMNSLRPEDTALYYCHSYDPRGDDYWGQGTLVTVSSGGGGSGGGSDVQLVESGGGVVQPGGSLRLSCAASGRTFSNYAMAWFRQAPGKEREFVAVISYAGGRTYYADSVKGRFTISRDNAKNTVYLQMNSLRPEDTALYYCAAVDSPLIATHPRGYDYWGQGTLVTVSS
# B4: F027201027 (bispecific antibody)
# chain: DVQLVESGGGVVQPGGSLRLSCAASGRTFSNYAMAWFRQAPGKEREFVAVISYAGGRTYYADSVKGRFTISRDNAKNTVYLQMNSLRPEDTALYYCAAVDSPLIATHPRGYDYWGQGTLVTVSSGGGGSGGGSEVQLVESGGGVVQPGGSLRLSCAASGFTFRSFGMSWVRQAPGKGPEWVSSISGSGSDTLYADSVKGRFTISRDNSKNTLYLQMNSLRPEDTALYYCTIGGSLSRSSQGTLVTVSSGGGGSGGGSEVQLVESGGGVVQPGGSLRLSCAASGIIFSINAMGWYRQAPGKQRELVADIFPFGSTEYADSVKGRFTISRDNAKNTVYLQMNSLRPEDTALYYCHSYDPRGDDYWGQGTLVTVSSGGGGSGGGSEVQLVESGGGVVQPGGSLRLSCTASGFTFSTADMGWFRQAPGKGREFVARISGIDGTTYYDEPVKGRFTISRDNSKNTVYLQMNSLRPEDTALYYCRSPRYADQWSAYDYWGQGTLVKVSS
# B5: F027201028 (bispecific antibody)
# chain: DVQLVESGGGVVQPGGSLRLSCAASGRTFSNYAMAWFRQAPGKEREFVAVISYAGGRTYYADSVKGRFTISRDNAKNTVYLQMNSLRPEDTALYYCAAVDSPLIATHPRGYDYWGQGTLVTVSSGGGGSGGGSEVQLVESGGGVVQPGGSLRLSCAASGIIFSINAMGWYRQAPGKQRELVADIFPFGSTEYADSVKGRFTISRDNAKNTVYLQMNSLRPEDTALYYCHSYDPRGDDYWGQGTLVTVSSGGGGSGGGSEVQLVESGGGVVQPGGSLRLSCAASGFTFRSFGMSWVRQAPGKGPEWVSSISGSGSDTLYADSVKGRFTISRDNSKNTLYLQMNSLRPEDTALYYCTIGGSLSRSSQGTLVTVSSGGGGSGGGSEVQLVESGGGVVQPGGSLRLSCTASGFTFSTADMGWFRQAPGKGREFVARISGIDGTTYYDEPVKGRFTISRDNSKNTVYLQMNSLRPEDTALYYCRSPRYADQWSAYDYWGQGTLVKVSS
# B6: F027201026 (bispecific antibody)
# chain: EVQLVESGGGVVQPGGSLRLSCTASGFTFSTADMGWFRQAPGKGREFVARISGIDGTTYYDEPVKGRFTISRDNSKNTVYLQMNSLRPEDTALYYCRSPRYADQWSAYDYWGQGTLVKVSSGGGGSGGGSEVQLVESGGGVVQPGGSLRLSCAASGFTFRSFGMSWVRQAPGKGPEWVSSISGSGSDTLYADSVKGRFTISRDNSKNTLYLQMNSLRPEDTALYYCTIGGSLSRSSQGTLVTVSSGGGGSGGGSDVQLVESGGGVVQPGGSLRLSCAASGRTFSNYAMAWFRQAPGKEREFVAVISYAGGRTYYADSVKGRFTISRDNAKNTVYLQMNSLRPEDTALYYCAAVDSPLIATHPRGYDYWGQGTLVTVSSGGGGSGGGSEVQLVESGGGVVQPGGSLRLSCAASGIIFSINAMGWYRQAPGKQRELVADIFPFGSTEYADSVKGRFTISRDNAKNTVYLQMNSLRPEDTALYYCHSYDPRGDDYWGQGTLVTVSS
# B7: F027200168 (bispecific antibody)
# chain: EVQLVESGGGVVQPGGSLRLSCAASGIIFSINAMGWYRQAPGKQRELVADIFPFGSTEYADSVKGRFTISRDNAKNTVYLQMNSLRPEDTALYYCHSYDPRGDDYWGQGTLVTVSSGGGGSGGGSEVQLVESGGGVVQPGGSLRLSCAASGFTFRSFGMSWVRQAPGKGPEWVSSISGSGSDTLYADSVKGRFTISRDNSKNTLYLQMNSLRPEDTALYYCTIGGSLSRSSQGTLVTVSSGGGGSGGGSEVQLVESGGGVVQPGGSLRLSCAASGRTFSSYVMGWFRQAPGKEREFVSTINWAGSRGYYADSVKGRFTISRDNAKNTVYLQMNSLRPEDTALYYCAASAGGFLVPRVGQGYDYWGQGTLVTVSSGGGGSGGGSEVQLVESGGGVVQPGGSLRLSCTASGFTFSTADMGWFRQAPGKGREFVARISGIDGTTYYDEPVKGRFTISRDNSKNTVYLQMNSLRPEDTALYYCRSPRYADQWSAYDYWGQGTLVKVSS
# B8: F027200153 (bispecific antibody)
# chain: EVQLVESGGGVVQPGGSLRLSCTASGFTFSTADMGWFRQAPGKGREFVARISGIDGTTYYDEPVKGRFTISRDNSKNTVYLQMNSLRPEDTALYYCRSPRYADQWSAYDYWGQGTLVKVSSGGGGSGGGSEVQLVESGGGVVQPGGSLRLSCAASGFTFRSFGMSWVRQAPGKGPEWVSSISGSGSDTLYADSVKGRFTISRDNSKNTLYLQMNSLRPEDTALYYCTIGGSLSRSSQGTLVTVSSGGGGSGGGSEVQLVESGGGVVQPGGSLRLSCAASGIIFSINAMGWYRQAPGKQRELVADIFPFGSTEYADSVKGRFTISRDNAKNTVYLQMNSLRPEDTALYYCHSYDPRGDDYWGQGTLVTVSSGGGGSGGGSEVQLVESGGGVVQPGGSLRLSCAASGRTFSSYVMGWFRQAPGKEREFVSTINWAGSRGYYADSVKGRFTISRDNAKNTVYLQMNSLRPEDTALYYCAASAGGFLVPRVGQGYDYWGQGTLVTVSS
# B9: F027200987 (bispecific antibody)
# chain: EVQLVESGGGVVQPGGSLRLSCAASGFSLDYYGVGWFRQAPGKEREGVSCISSSEGDTYYADSVKGRFTISRDNAKNTVYLQMNSLRPEDTALYYCATDLSDYGVCSRWPSPYDYWGQGTLVKVSSGGGGSGGGSEVQLVESGGGVVQPGGSLRLSCAASGFTFRSFGMSWVRQAPGKGPEWVSSISGSGSDTLYADSVKGRFTISRDNSKNTLYLQMNSLRPEDTALYYCTIGGSLSRSSQGTLVTVSSGGGGSGGGSEVQLVESGGGVVQPGGSLRLSCAASGFTLAYYAIGWFRQAPGKEREGVSCISGSVGTTYYADSVKGRFTISRDNAKNTVYLQMNSLRPEDTALYYCVRSSWFDCGVQGRDLGNEYDYRGQGTLVTVSSGGGGSGGGSEVQLVESGGGVVQPGGSLRLSCTASGFTFSTADMGWFRQAPGKGREFVARISGIDGTTYYDEPVKGRFTISRDNSKNTVYLQMNSLRPEDTALYYCRSPRYADQWSAYDYWGQGTLVKVSS
# B10: F027200215 (bispecific antibody)
# chain: EVQLVESGGGVVQPGGSLRLSCAASGIIFSINAMGWYRQAPGKQRELVADIFPFGSTEYADSVKGRFTISRDNAKNTVYLQMNSLRPEDTALYYCHSYDPRGDDYWGQGTLVTVSSGGGGSGGGSDVQLVESGGGVVQPGGSLRLSCAASGRTFSNYAMAWFRQAPGKEREFVAVISYAGGRTYYADSVKGRFTISRDNAKNTVYLQMNSLRPEDTALYYCAAVDSPLIATHPRGYDYWGQGTLVTVSSGGGGSGGGSEVQLVESGGGVVQPGGSLRLSCAASGFTFRSFGMSWVRQAPGKGPEWVSSISGSGSDTLYADSVKGRFTISRDNSKNTLYLQMNSLRPEDTALYYCTIGGSLSRSSQGTLVTVSSGGGGSGGGSEVQLVESGGGVVQPGGSLRLSCTASGFTFSTADMGWFRQAPGKGREFVARISGIDGTTYYDEPVKGRFTISRDNSKNTVYLQMNSLRPEDTALYYCRSPRYADQWSAYDYWGQGTLVKVSS
# Target: T1, cyno IL-6
# Experiment: cell-based or functional assay
row,Ratio IC50 cyno IL-6/hIL-6,Binder
1,38.3 ratio,B1
2,2.5 ratio,B2
3,2.1 ratio,B3
4,0.6 ratio,B4
5,1.1 ratio,B5
6,1.2 ratio,B6
7,1.6 ratio,B7
8,2.5 ratio,B8
9,29.4 ratio,B9
10,2 ratio,B10

# Target: human IL-6 (human, UniProt P05231 30-212)
# Experiment: cell-based or functional assay
row,IC50 hIL-6 TF1 proliferation assay,Binder
1,127 pM,B1
2,1270 pM,B2
3,415 pM,B3
4,317 pM,B4
5,293 pM,B5
6,303 pM,B6
7,966 pM,B7
8,1030 pM,B8
9,143 pM,B9
10,302 pM,B10

# Target: human TNF-α (human, UniProt P01375 77-233)
# Experiment: cell-based or functional assay
# Sequence of human TNF-α (P01375 77-233 limits assumed): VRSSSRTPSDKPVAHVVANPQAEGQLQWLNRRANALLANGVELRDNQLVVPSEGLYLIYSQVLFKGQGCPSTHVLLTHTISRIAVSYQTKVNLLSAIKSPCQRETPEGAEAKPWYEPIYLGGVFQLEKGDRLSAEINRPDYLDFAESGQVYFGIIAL
row,IC50 hTNF-α Nfkb assay,Binder
1,171 pM,B2
2,164 pM,B3
3,60.3 pM,B4
4,61 pM,B5
5,85.2 pM,B6
6,140 pM,B7
7,139 pM,B8
8,239 pM,B10

# Target: cyno TNF-α (cynomolgus monkey, UniProt P79337 77-233)
# Experiment: cell-based or functional assay
# Sequence of cyno TNF-α (P79337 77-233 limits assumed): as the sequence (P01375 77-233 limits assumed) above, with L37V, R44T, T72N, R138L counted along it
row,Ratio IC50 cyno TNFα/hTNFα,Binder
1,3.1 ratio,B2
2,2.8 ratio,B3
3,2.5 ratio,B4
4,3.1 ratio,B5
5,2.2 ratio,B6
6,3.3 ratio,B7
7,2.7 ratio,B8
8,2.7 ratio,B10

# Reference: patent publication US20240301049A1 (Ablynx, published 2024)
